The source of these data is patent US20120264231A1, “ASSAY FOR ORAI CALCIUM CHANNEL REGULATORS” (IMMUNE DISEASE INSTITUTE, INC., priority 2009, published 2012).

One experiment addresses ORAI1 (Homo sapiens, UniProt Q96D31). As to the kind of experiment: Confocal localization of mCherry-STIM1 proteins in HEK293 cells. Particulars: mCherry-STIM1 proteins coexpressed with ORAI1 in HEK293 cells. Type of experiment: cell-based. More on the design: expressed in transfected cells; host or cells: HEK293. An excerpt: The localization of mCherry-STIM1 proteins in transiently-transfected HEK293 cells was investigated. mCherry-STIM1 (233-683), or (233-498) or (233-463) expressed alone, and also mCherry-STIM (233-683), or (233-498) or (233-463) expressed with ORAI-EYFP in the plasmid ratios 1:0, 0.5:1, 1:1, and 2:1 were examined. […] This is consistent with the functional assay in T cells and with recent reports in the literature (Muik, M., et al., J Biol Chem 283, 8014-8022 (2008); Penna, A., et al., Nature 456, 116-120 (2008); Ji, W., et al., Proc Natl Acad Sci USA 105, 13668-13673 (2008); Yuan, J. P., et al., Nat Cell Biol 11, 337-34 3 (2009); Muik, M., et al., J Biol Chem 284, 8421-8426 (2009); Park, C. Y., et al., Cell 136, 876-890 (2009)). […] The contrasting failure to detect binding of STIM 1 (233-463) in vitro might conceivably reflect the state of the bacterially-expressed protein as a mixture of trimers, tetramers, and undefined large aggregates. A more intriguing possibility, however, is that a weak interaction of STIM 1 (233-463) with ORAI is stabilized and rendered productive by additional proteins in mammalian cells.
An ORAI1-YFP expression plasmid was constructed by cloning the human ORAI1 cDNA (accession number NM_032790) into the vector pEYFP-N1 between the EcoRI and AgeI sites, in frame with the YFP coding sequence. mCherry-tagged STIM 1^CT fragments were made by subcloning mCherry between the BamHI and EcoRI sites of the vector pcDNA3.1(+) (Invitrogen), and subsequently inserting cDNA encoding STIM1^CT fragments between the EcoRI and XhoI sites.
HEK293 cells were transiently transfected with ORAI-YFP or mCherry-STIM plasmids using Lipofectamine 2000 (Invitrogen) according to the manufacturer's instructions. At 48 h post-transfection, confocal imaging was performed on a Zeiss LSM 510 laser scanning microscope with a 100× oil-immersion objective lens. YFP was excited at 488 nm with an argon laser and mCherry at 543 nm with a HeNe laser. All the experiments were carried out with cells bathed in Hanks' Balanced Salt Solution at 37° C.

Experiment [1] can be described thus: Fura-2 Ca^2+ flux assay, control vesicles. Type of experiment: biochemical, S cerevisiae. The settings on record: STIM 1 cytoplasmic fragments 2 μM. How it is done: It was next asked whether STIM-ORAI protein-protein interaction is sufficient to open the ORAI Ca^2+ channel. Vesicles obtained from S cerevisiae expressing ORAI were incubated under conditions where Fura-2 was the principal Ca^2+ buffer in the extravesicular solution in order to monitor Ca^2+ efflux (Meyer, T., et al., Biochemistry 29, 32-37 (1990)).
S cerevisiae strain NY17 featuring the temperature-sensitive sec6-4 mutation was used for protein expression and purification of secretory vesicles as described (Nakamoto, R. K., et al., J Biol Chem 266, 7940-7949 (1991); Coury, L. A., et al., Methods Enzymol 306, 169-186 (1999)). Cells were grown to midlog phase at 25° C. in uracil-deficient synthetic complete medium containing glucose, which was subsequently exchanged for galactose to induce transgene expression over a period of 8 hours. The temperature was then switched to 37° C. for 3 hours to force intracellular accumulation of secretory vesicles. […] Myc-tagged ORAI1 was detected in Western blots using the murine anti-Myc monoclonal antibody 9E10. […]
Fura-2 spectra were recorded at ambient temperature, 22-25° C., in 20 mM Tris pH 7.4, 100 mM KCl, containing 10 μM metal-free Fura-2. Excitation spectra were recorded by scanning from 300-450 nm while monitoring emission at 510 nm, using a 2-4 nm slitwidth for both excitation and emission. […]

Sequence of ORAI1 (Q96D31 whole entry): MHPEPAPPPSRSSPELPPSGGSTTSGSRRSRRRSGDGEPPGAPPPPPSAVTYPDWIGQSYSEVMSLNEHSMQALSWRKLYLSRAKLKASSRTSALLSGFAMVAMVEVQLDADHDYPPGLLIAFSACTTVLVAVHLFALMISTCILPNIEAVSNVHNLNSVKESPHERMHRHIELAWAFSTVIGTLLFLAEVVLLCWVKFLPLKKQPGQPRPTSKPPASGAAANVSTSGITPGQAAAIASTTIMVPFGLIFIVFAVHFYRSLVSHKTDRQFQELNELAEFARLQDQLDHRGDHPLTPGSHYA

As for “STIM1 (233-463): truncated mouse STIM1 cytoplasmic fragment, residues 233-463, His-tagged recombinant protein”, the “localization at plasma membrane” value in the experiment with ORAI1 is reported as “decorated the plasma membrane”.

On to “STIM1 (233-498): truncated mouse STIM1 cytoplasmic fragment, residues 233-498, His-tagged recombinant protein”, for which the “Ca^2+ release from control vesicles (Fura-2)” value in experiment [1] is recorded as “neither STIM 1 fragment was effective”. The “localization at plasma membrane” value with ORAI1 is on record as “decorated the plasma membrane”.

In the case of “STIM1^CT: cytoplasmic region of STIM1, mouse residues 233-685, His-tagged recombinant protein expressed in E coli”, the “Ca^2+ release from control vesicles (Fura-2)” value in experiment [1] is “neither STIM 1 fragment was effective”. The “localization at plasma membrane” value with ORAI1 was “decorated the plasma membrane”.
